Laboratory results: article PMC10516938, “Conformational dynamics of cohesin/Scc2 loading complex are regulated by Smc3 acetylation and ATP binding” (Nature Communications, 2023)
Numbering of substitutions follows the chain as printed. Numbers in names are those of the source.

T1: Smc3 S72C E1155Q (S. cerevisiae, UniProt P47037 1-1230, S72C | E1155Q)
T1 construct: Smc3, S. cerevisiae; also called EQ mutant version of Smc3^S72C; source: S. cerevisiae W303, ectopically expressed, late G1 arrested cells, whole-cell extract
T1 sequence (looked up): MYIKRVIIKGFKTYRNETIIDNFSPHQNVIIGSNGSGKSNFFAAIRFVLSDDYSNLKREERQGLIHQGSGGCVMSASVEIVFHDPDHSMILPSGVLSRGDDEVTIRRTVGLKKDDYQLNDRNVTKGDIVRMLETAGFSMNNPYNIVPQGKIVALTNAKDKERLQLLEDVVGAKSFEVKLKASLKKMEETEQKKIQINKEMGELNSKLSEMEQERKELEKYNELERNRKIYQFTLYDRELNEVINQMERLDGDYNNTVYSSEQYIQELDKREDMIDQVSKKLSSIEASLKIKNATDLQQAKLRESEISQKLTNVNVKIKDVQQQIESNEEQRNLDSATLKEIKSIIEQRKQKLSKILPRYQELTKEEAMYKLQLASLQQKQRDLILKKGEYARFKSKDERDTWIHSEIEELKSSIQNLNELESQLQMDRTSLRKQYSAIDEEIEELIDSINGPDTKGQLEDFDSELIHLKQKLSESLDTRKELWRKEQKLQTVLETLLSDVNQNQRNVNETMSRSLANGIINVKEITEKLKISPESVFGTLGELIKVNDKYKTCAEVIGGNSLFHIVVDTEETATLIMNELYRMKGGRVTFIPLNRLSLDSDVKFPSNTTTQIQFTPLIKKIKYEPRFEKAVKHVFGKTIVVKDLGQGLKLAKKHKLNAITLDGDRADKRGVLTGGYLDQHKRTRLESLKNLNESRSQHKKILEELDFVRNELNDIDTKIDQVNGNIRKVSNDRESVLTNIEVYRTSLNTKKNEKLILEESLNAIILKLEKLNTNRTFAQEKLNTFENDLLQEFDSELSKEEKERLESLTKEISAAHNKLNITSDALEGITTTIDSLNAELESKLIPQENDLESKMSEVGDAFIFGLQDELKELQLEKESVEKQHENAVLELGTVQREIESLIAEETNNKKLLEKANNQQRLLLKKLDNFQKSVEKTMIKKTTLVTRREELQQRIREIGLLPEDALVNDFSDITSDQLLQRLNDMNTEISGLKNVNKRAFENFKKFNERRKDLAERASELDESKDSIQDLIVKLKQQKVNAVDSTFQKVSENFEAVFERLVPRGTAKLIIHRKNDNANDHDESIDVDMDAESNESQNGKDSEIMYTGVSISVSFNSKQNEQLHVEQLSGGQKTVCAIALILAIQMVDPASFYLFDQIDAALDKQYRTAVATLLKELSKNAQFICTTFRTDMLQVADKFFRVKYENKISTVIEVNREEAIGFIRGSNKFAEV

T2: Smc3^QQ S72C (S. cerevisiae, UniProt P47037 1-1230, S72C | K112Q | K113Q)
T2 construct: Smc3, S. cerevisiae; source: S. cerevisiae W303, late G1 arrested cells, whole-cell extract
T2 sequence (looked up): T1 sequence (looked up) with K112Q, K113Q, Q1155E

T3: Smc3^E1155Q Q67C K1004C (S. cerevisiae, UniProt P47037 1-1230, Q67C | K1004C | E1155Q)
T3 construct: Smc3, S. cerevisiae, ATP hydrolysis mutant; source: S. cerevisiae W303, late G1 arrested cells, whole-cell extract
T3 sequence (looked up): T1 sequence (looked up) with Q67C, C72S, K1004C

B1: Scc2 E819C (natural protein, S. cerevisiae, UniProt Q04002 1-1493, looked up)
chain: MSYPGKDKNIPGRIIEALEDLPLSYLVPKDGLAALVNAPMRVSLPFDKTIFTSADDGRDVNINVLGTANSTTSSIKNEAEKERLVFKRPSNFTSSANSVDYVPTNFLEGLSPLAQSVLSTHKGLNDSINIEKKSEIVSRPEAKHKLESVTSNAGNLSFNDNSSNKKTKTSTGVTMTQANLAEQYLNDLKNILDIVGFDQNSAEIGNIEYWLQLPNKKFVLTTNCLTKLQMTIKNITDNPQLSNSIEITWLLRLLDVMVCNIKFSKSSLKMGLDDSMLRYIALLSTIVLFNIFLLGKNDSNLHRESYIMEPVNFLSDLIESLKILTIEYGSLKIEFDTFQEALELLPKYIRNGPFLDDNVTAKLVYIFSDLLMNNDIEATTNIQFQSFWDNVKRISSDILVSLFGSFDQQRGFIIEELLSHIEKLPTKRIQKKLRKVGNQNIYITDFTFTLMSMLENINCYSFCNQMKDIAPENIDLLKNEYKKQEEFLFNIVEHINDTILERFFKNPSALRYVIDNFVQDLLLLISSPQWPVTEKILSSLLKRLLSVYSPSMQVSANIETICLQLIGNIGSTIFDIKCSTRDHEDNNLIKMINYPETLPHFFKSFEECIAYNETIKCRRSATRFLWNLRLGTILILEEYTKDAKEQIITVDNELKKILEQIKDGGLGPELENREADFSTIKLDYFSILHAFELLNLYDPYLKLILSLLAKDKIKLRSTAIKCLSMLASKDKVILSNPMVKETIHRRLNDSSASVKDAILDLVSINSSYFEFYQQINNNYNDDSIMVRKHVLRINEKMYDETNDIVTKVYVIARILMKICDEEDNIIDMARLILLNRWILKVHEVLDQPEKLKEISSSVLLVMSRVAIMNEKCSQLFDLFLNFYLLNKEAHSKEAYDKITHVLTILTDFLVQKIVELNSDDTNEKNSIVDKQNFLNLLAKFADSTVSFLTKDHITALYPYMVSDEKSDFHYYILQVFRCTFEKLANFKQKFLYDLETTLLSRLPKMNVREIDEAMPLIWSVATHRHDTARVAKACSSCLSHLHPYINKANNEEAAIVVDGKLQRLIYLSTGFARFCFPKPSNDKIAFLQEGETLYEHITKCLLVLSKDKITHVIRRVAVKNLTKLCGNHPKLFNSRHVLHLLDKEFQSDQLDIKLVILESLYDLFLLEERKSVRNTGVNSTLSSNSILKKKLLKTNRVEFANDGVCSALATRFLDNILQLCLLRDLKNSLVAIRLLKLILKFGYTNPSHSIPTVIALFASTSQYIRHVAYELLEDLFEKYETLVFSSLSRGVTKAIHYSIHTDEKYYYKHDHFLSLLEKLCGTGKKNGPKFFKVLKRIMQSYLDDITDLTSTNSSVQKSIFVLCTNISNITFVSQYDLVSLLKTIDLTTDRLKEVIMDEIGDNVSSLSVSEEKLSGIILIQLSLQDLGTYLLHLYGLRDDVLLLDIVEESELKNKQLPAKKPDISKFSAQLENIEQYSSNGKLLTYFRKHVKDT
notes: Scc2, S. cerevisiae; source: S. cerevisiae W303, in vivo, whole-cell extract
B2: Scc2 D369C T1175C (natural protein, S. cerevisiae, UniProt Q04002 1-1493, looked up)
chain: B1 chain with D369C, C819E, T1175C
notes: Scc2, S. cerevisiae; source: S. cerevisiae W303, late G1 arrested cells, whole-cell extract

Key:
Experiment in all cases: cross-linking; in vivo BMOE cross-link of cysteine pairs in yeast cells arrested in late G1 by non-degradable Sic1(9m); Scc1-PK immunoprecipitated, western blot, band intensities quantified
Details in all cases: partners not purified
Smc3 S72C E1155Q = molecular target: T1, Smc3 S72C E1155Q
Smc3^QQ S72C = molecular target: T2, Smc3^QQ S72C
Smc3^E1155Q Q67C K1004C = molecular target: T3, Smc3^E1155Q Q67C K1004C

Row | fold change of the crosslink against wild-type Smc3 (S72C) (Smc3 S72C E1155Q) | crosslinking efficiency relative to wild type (Smc3^QQ S72C) | double crosslink band relative to that of smc3 S72C K1004C E1155Q with scc2 E819C D369C (Smc3^E1155Q Q67C K1004C) | Binder
1 | ~2 fold | ~10% | – | B1
2 | – | – | ~15% | B2
